Patent US20040044182A1 (published 2004)

Biological target: T1, β2m (12 kDa non-polymorphic light chain) (human, UniProt P61769 21-119)
T1 construct: No recombinant β2m was added; It came from the human HEK293 cells and co-purified under native conditions; also called beta-2-microglobulin
Experiment: immunoblot of the purified protein with anti-β2m antibody (co-purification under native conditions)
Procedure: Human leukocyte antigens are heterodimeric molecules comprised of glycosylated heavy chains non-covalently associated with a 12 kDa non-polymorphic light chain called β2m. PurifiedrsHLA-G1 (10 to 100 ng) and rsHLA-G2 (10 to 1000 ng) were separated on 15% SDS-PAGE, transferred to nitrocellulose membranes and immuno-detected with anti-Flag M1 antibody or anti-β2m, as shown in FIG. 6. Only rsHLA-G1 was positive for β2m. […] To produce the immunoblot of FIG. 6, purified recombinant sHLA-G1 (10-100 ng) and purified recombinant sHLA-G2 (10-1000 ng) were separated using 15% PAGE-SDS and electrotransferred to nitrocellulose membranes. One blot was detected with anti-Flag-M1 antibody and the other with a mouse anti-β2m. This experiment provides evidence that sBLA-G2 is produced as free alpha chains, while sHLA-G1 is bound to β2m.

binding result: no binding (tested: up to 1 µg)
B1: recombinant soluble HLA-G2 (other)
MHC heavy: APLADYKDDDDKLAGSHSMRYFSAAVSRPGRGEPRFIAMGYVDDTQFVRFDSDSACPRMEPRAPWVEQEGPEYWEEETRNTKAHAQTDRMNLQTLRGYYNQSEANPPKTHVTHHPVFDYEATLRCWALGFYPAEIILTWQRDGEDQTQDVELVETRPAGDGTFQKWAAVVVPSGEEQRYTCHVQHEGLPEPLMLRWSKEGDGGIMSVRESRSLSEDL
modifications: glycosylated
notes: Secreted from HEK293 cells; The first amino acid of the α3 domain is asparagine, not aspartic acid as in sHLA-G1; Produced as free alpha chains; also called rsHLA-G2; sHLA-G2
